From patent publication US20150374794A1 (Novo Nordisk, published 2015) come the findings set out here.

Numbered stars: 1 amine (or outer) side, 2 acyl side, 3 side chain; on linkers, the order of the positions; unused ones are H or OH. Square brackets hold non-standard residues; d marks the D form. Side chains are listed from the residue outwards. Ends that are not written are not given here. * marks the point of attachment. C18 diacid = O=C(O)CCCCCCCCCCCCCCCCC(=O)*; γGlu = O=C(O)[C@H](CCC(=O)[*:2])N[*:1]; AEEA = NCCOCCOCC(=O)O; Ac3c = NC1(C(=O)O)CC1; Aib = CC(C)(N)C(=O)O

B1: N^ε29-[(4S)-4-carboxy-4-[[(4S)-4-carboxy-4-[[2-[2-[2-[[(4S)-4-carboxy-4-(17-carboxyheptadecanoylamino)butanoyl]amino]ethoxy]ethoxy]acetyl]amino]butanoyl]amino]b … (peptide)
peptide: H[Aib]QGTFTSDLSKYLESRRAREFVQWLLNK([γGlu-γGlu-AEEA-γGlu-C18 diacid])-NH2
modifications: N-terminus assumed
SMILES: CC(C)C[C@H](NC(=O)[C@H](CC(C)C)NC(=O)[C@H](Cc1c[nH]c2ccccc12)NC(=O)[C@H](CCC(N)=O)NC(=O)[C@@H](NC(=O)[C@H](Cc1ccccc1)NC(=O)[C@H](CCC(=O)O)NC(=O)[C@H](CCCNC(=N)N)NC(=O)[C@H](C)NC(=O)[C@H](CCCNC(=N)N)NC(=O)[C@H](CCCNC(=N)N)NC(=O)[C@H](CO)NC(=O)[C@H](CCC(=O)O)NC(=O)[C@H](CC(C)C)NC(=O)[C@H](Cc1ccc(O)cc1)NC(=O)[C@H](CCCCN)NC(=O)[C@H](CO)NC(=O)[C@H](CC(C)C)NC(=O)[C@H](CC(=O)O)NC(=O)[C@H](CO)NC(=O)[C@@H](NC(=O)[C@H](Cc1ccccc1)NC(=O)[C@@H](NC(=O)CNC(=O)[C@H](CCC(N)=O)NC(=O)C(C)(C)NC(=O)[C@@H](N)Cc1c[nH]cn1)[C@@H](C)O)[C@@H](C)O)C(C)C)C(=O)N[C@@H](CC(N)=O)C(=O)N[C@@H](CCCCNC(=O)CC[C@H](NC(=O)CC[C@H](NC(=O)COCCOCCNC(=O)CC[C@H](NC(=O)CCCCCCCCCCCCCCCCC(=O)O)C(=O)O)C(=O)O)C(=O)O)C(N)=O
B2: N^ε28-[(4S)-4-carboxy-4-[[(4S)-4-carboxy-4-[[2-[2-[2-[[2-[2-[2-[[(4S)-4-carboxy-4-(17-carboxyheptadecanoylamino)butanoyl]amino]ethoxy]ethoxy]acetyl]amino]ethoxy … (peptide)
peptide: H[Aib]QGTFTSDLSKYLD[Aib]RRAREFVQWLLK([γGlu-γGlu-AEEA-AEEA-γGlu-C18 diacid])T-NH2
modifications: N-terminus assumed
SMILES: CC(C)C[C@H](NC(=O)[C@H](Cc1c[nH]c2ccccc12)NC(=O)[C@H](CCC(N)=O)NC(=O)[C@@H](NC(=O)[C@H](Cc1ccccc1)NC(=O)[C@H](CCC(=O)O)NC(=O)[C@H](CCCNC(=N)N)NC(=O)[C@H](C)NC(=O)[C@H](CCCNC(=N)N)NC(=O)[C@H](CCCNC(=N)N)NC(=O)C(C)(C)NC(=O)[C@H](CC(=O)O)NC(=O)[C@H](CC(C)C)NC(=O)[C@H](Cc1ccc(O)cc1)NC(=O)[C@H](CCCCN)NC(=O)[C@H](CO)NC(=O)[C@H](CC(C)C)NC(=O)[C@H](CC(=O)O)NC(=O)[C@H](CO)NC(=O)[C@@H](NC(=O)[C@H](Cc1ccccc1)NC(=O)[C@@H](NC(=O)CNC(=O)[C@H](CCC(N)=O)NC(=O)C(C)(C)NC(=O)[C@@H](N)Cc1c[nH]cn1)[C@@H](C)O)[C@@H](C)O)C(C)C)C(=O)N[C@@H](CC(C)C)C(=O)N[C@@H](CCCCNC(=O)CC[C@H](NC(=O)CC[C@H](NC(=O)COCCOCCNC(=O)COCCOCCNC(=O)CC[C@H](NC(=O)CCCCCCCCCCCCCCCCC(=O)O)C(=O)O)C(=O)O)C(=O)O)C(=O)N[C@H](C(N)=O)[C@@H](C)O
B3: N^ε16-[(4S)-4-carboxy-4-[[(4S)-4-carboxy-4-[[2-[2-[2-[[(4S)-4-carboxy-4-[[(4S)-4-carboxy-4-(17-carboxyheptadecanoylamino)butanoyl]amino]butanoyl]amino]ethoxy]et … (peptide)
peptide: H[Aib]QGTFTSDLSKYLDK([γGlu-γGlu-AEEA-γGlu-γGlu-C18 diacid])RRAQEFVQWLVKG-NH2
modifications: N-terminus assumed
SMILES: CC(C)C[C@H](NC(=O)[C@H](Cc1ccc(O)cc1)NC(=O)[C@H](CCCCN)NC(=O)[C@H](CO)NC(=O)[C@H](CC(C)C)NC(=O)[C@H](CC(=O)O)NC(=O)[C@H](CO)NC(=O)[C@@H](NC(=O)[C@H](Cc1ccccc1)NC(=O)[C@@H](NC(=O)CNC(=O)[C@H](CCC(N)=O)NC(=O)C(C)(C)NC(=O)[C@@H](N)Cc1c[nH]cn1)[C@@H](C)O)[C@@H](C)O)C(=O)N[C@@H](CC(=O)O)C(=O)N[C@@H](CCCCNC(=O)CC[C@H](NC(=O)CC[C@H](NC(=O)COCCOCCNC(=O)CC[C@H](NC(=O)CC[C@H](NC(=O)CCCCCCCCCCCCCCCCC(=O)O)C(=O)O)C(=O)O)C(=O)O)C(=O)O)C(=O)N[C@@H](CCCNC(=N)N)C(=O)N[C@@H](CCCNC(=N)N)C(=O)N[C@@H](C)C(=O)N[C@@H](CCC(N)=O)C(=O)N[C@@H](CCC(=O)O)C(=O)N[C@@H](Cc1ccccc1)C(=O)N[C@H](C(=O)N[C@@H](CCC(N)=O)C(=O)N[C@@H](Cc1c[nH]c2ccccc12)C(=O)N[C@@H](CC(C)C)C(=O)N[C@H](C(=O)N[C@@H](CCCCN)C(=O)NCC(N)=O)C(C)C)C(C)C
B4: N^ε28-[(4S)-4-carboxy-4-[[(4S)-4-carboxy-4-[[2-[2-[2-[[2-[2-[2-[[(4S)-4-carboxy-4-(17-carboxyheptadecanoylamino)butanoyl]amino]ethoxy]ethoxy]acetyl]amino]ethoxy … (peptide)
peptide: H[Ac3c]QGTFTSDLSKYLESRRAREFVQWLLK([γGlu-γGlu-AEEA-AEEA-γGlu-C18 diacid])T-NH2
modifications: N-terminus assumed
SMILES: CC(C)C[C@H](NC(=O)[C@H](Cc1ccc(O)cc1)NC(=O)[C@H](CCCCN)NC(=O)[C@H](CO)NC(=O)[C@H](CC(C)C)NC(=O)[C@H](CC(=O)O)NC(=O)[C@H](CO)NC(=O)[C@@H](NC(=O)[C@H](Cc1ccccc1)NC(=O)[C@@H](NC(=O)CNC(=O)[C@H](CCC(N)=O)NC(=O)C1(NC(=O)[C@@H](N)Cc2c[nH]cn2)CC1)[C@@H](C)O)[C@@H](C)O)C(=O)N[C@@H](CCC(=O)O)C(=O)N[C@@H](CO)C(=O)N[C@@H](CCCNC(=N)N)C(=O)N[C@@H](CCCNC(=N)N)C(=O)N[C@@H](C)C(=O)N[C@@H](CCCNC(=N)N)C(=O)N[C@@H](CCC(=O)O)C(=O)N[C@@H](Cc1ccccc1)C(=O)N[C@H](C(=O)N[C@@H](CCC(N)=O)C(=O)N[C@@H](Cc1c[nH]c2ccccc12)C(=O)N[C@@H](CC(C)C)C(=O)N[C@@H](CC(C)C)C(=O)N[C@@H](CCCCNC(=O)CC[C@H](NC(=O)CC[C@H](NC(=O)COCCOCCNC(=O)COCCOCCNC(=O)CC[C@H](NC(=O)CCCCCCCCCCCCCCCCC(=O)O)C(=O)O)C(=O)O)C(=O)O)C(=O)N[C@H](C(N)=O)[C@@H](C)O)C(C)C

In the first assay the target is T1, human GLP-1 receptor (human, UniProt P43220 24-463).
T1 construct: whole, on cells; the potency assay used whole cells (clone FCW467-12A/KZ10-1)
Briefly: displacement of 125I-GLP-1(7-36)NH2, membranes with human GLP-1R, SPA. On the procedure:
The receptor binding of each compound to the human GLP-1 receptor was measured in a displacement binding assay. […] Each derivative was added in a series of concentrations to isolated membranes containing the human GLP-1 receptor and displacement of the labelled ligand was monitored. The receptor binding was reported as the concentration at which half of the labelled ligand was displaced from the receptor, the IC₅₀ value.
On the technique in general: Loss of bound radioactivity is the signal in a displacement assay; it reports binding, not function.
By IC50 is commonly meant the concentration needed to halve the response being measured. Higher therefore signals weaker potency in that assay. B1 showed an IC50 of 0.4 nM.

Molecule B2 displayed a half-inhibitory concentration (IC50) of 0.7 nM.

Turning to B3, the IC50 amounted to 1.6 nM.

Consider B4, for which the IC50 was 2.2 nM.

The target of a further assay is T2, human glucagon receptor (human, UniProt P47871 26-477).
T2 construct: whole, on cells; the potency assay used whole cells (clone pLJ6'-4-25); also called GlucR; hGCGR
T2 sequence (P47871 26-477): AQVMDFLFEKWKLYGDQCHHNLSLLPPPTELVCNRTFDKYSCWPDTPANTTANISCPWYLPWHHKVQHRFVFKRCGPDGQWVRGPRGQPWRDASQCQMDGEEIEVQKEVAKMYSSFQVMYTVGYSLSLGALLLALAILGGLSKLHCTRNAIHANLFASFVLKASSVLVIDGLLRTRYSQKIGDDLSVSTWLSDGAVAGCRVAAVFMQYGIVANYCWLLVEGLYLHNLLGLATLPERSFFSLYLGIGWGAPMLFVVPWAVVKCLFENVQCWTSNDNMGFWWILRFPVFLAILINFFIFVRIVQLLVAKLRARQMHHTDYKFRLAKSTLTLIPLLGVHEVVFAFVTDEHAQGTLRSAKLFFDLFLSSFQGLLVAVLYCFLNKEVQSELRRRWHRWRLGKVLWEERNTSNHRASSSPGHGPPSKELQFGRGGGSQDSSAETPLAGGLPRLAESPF
Briefly: displacement of 125I-glucagon, membranes with human glucagon receptor, SPA. On the procedure: The receptor binding of each compound to the human glucagon receptor was measured in a displacement binding assay. […] Each derivative was added in a series of concentrations to isolated membranes containing the human glucagon receptor and displacement of the labelled ligand is monitored. The receptor binding was reported as the concentration at which half of the labelled ligand is displaced from the receptor, the IC₅₀ value.
Molecule B1 registered an IC50 of 37.7 nM.

Molecule B2 gave an IC50 of 1.4 nM.

As to B3, the IC50 was found to be 148 nM.

Regarding B4, the IC50 turned out to be 26.2 nM.

A further assay has as its target T2, human glucagon receptor. Kind of assay: cell-based or functional assay.
Turning to B1, the “EC50 GlucR, CRE luciferase reporter gene assay in BHK cells” value (shortened to “EC50 GlucR”) amounted to 0.136 nM.

For the molecule B2, the “EC50 GlucR” value amounted to 0.004 nM.

For B3, the “EC50 GlucR” value came to 1.33 nM.

In the case of B4, the “EC50 GlucR” value stood at 0.28 nM.

The target in another assay is T1, human GLP-1 receptor. Kind of assay: cell-based or functional assay.
Turning to B1, the “EC50 GLP-1R, CRE luciferase reporter gene assay in BHK cells” value (“EC50 GLP-1R” below) stood at 0.004 nM.

As to B2, the “EC50 GLP-1R” value was determined as 0.006 nM.

B3: the “EC50 GLP-1R” value stood at 0.0295 nM.

As to B4, the “EC50 GLP-1R” value was found to be 0.011 nM.
